From article PMC7679444 come the findings set out here.

First the molecules themselves.
B1: TMEM59 peptide (residues 268–280), wild type [modified: long spacer (Tds) at the N-terminal end, used for immobilisation; long spacer (Tds) at the N-terminal end, used for immobilisation] [not stated] / GST-HA-ATG16L1(231–607) … (parent)
chain 1: PLPVEQDDDIEVIVDETSDHTEETSPVRAISRAATKRLSQPAGGLLDSITNIFGRRSVSSFPVPQDNVDTHPGSGKEVRVPATALCVFDAHDGEVNAVQFSPGSRLLATGGMDRRVKLWEVFGEKCEFKGSLSGSNAGITSIEFDSAGSYLLAASNDFASRIWTVDDYRLRHTLTGHSGKVLSAKFLLDNARIVSGSHDRTLKLWDLRSKVCIKTVFAGSSCNDIVCTEQCVMSGHFDKKIRFWDIRSESIVREMELLGKITALDLNPERTELLSCSRDDLLKVIDLRTNAIKQTFSAPGFKCGSDWTRVVFSPDGSYVAAGSAEGSLYIWSVLTGKVEKVLSKQHSSSINAVAWSPSGSHVVSVDKGCKAVLWAQY
chain 2: YVPSEKLSIYGDL

The variants in the assay derive from B1. Nature of the assay: peptide microarray. To be noted: with GST-HA-ATG16L1(231–607) [human], parent: 100.

As for chain 2 Y10Q, the percent of parent (ligand 800, 600, 400 nM) was 2 % WT.

For chain 2 Y10K, the percent of parent (ligand 800, 600, 400 nM) was found to be 6 % WT.

With chain 2 Y10G, the percent of parent (ligand 800, 600, 400 nM) worked out at 2 % WT.

In the case of chain 2 Y10R, the percent of parent (ligand 800, 600, 400 nM) was 5 % WT.

As to chain 2 K6T, the percent of parent reads like this: (ligand 200, 50, 20 nM) 7 % WT; (ligand 800, 600, 400 nM) 12 % WT.

With chain 2 K6H, the percent of parent by setting is: (ligand 200, 50, 20 nM) 28 % WT; (ligand 800, 600, 400 nM) 21 % WT.

As for chain 2 K6N, the percent of parent reads like this: (ligand 200, 50, 20 nM) 4 % WT; (ligand 800, 600, 400 nM) 2 % WT.

In the case of chain 2 K6I, the percent of parent reads like this: (ligand 200, 50, 20 nM) 53 % WT; (ligand 800, 600, 400 nM) 61 % WT.

As for chain 2 K6L, the percent of parent is 35 % WT (ligand 200, 50, 20 nM) and 51 % WT (ligand 800, 600, 400 nM).

Turning to chain 2 K6S, the percent of parent turned out to be 8 % WT (ligand 200, 50, 20 nM) and 11 % WT (ligand 800, 600, 400 nM).

Regarding chain 2 K6Q, the percent of parent is, setting by setting: (ligand 200, 50, 20 nM) 3 % WT; (ligand 800, 600, 400 nM) 4 % WT.

As for chain 2 K6Y, the percent of parent by setting is: (ligand 200, 50, 20 nM) 105 % WT; (ligand 800, 600, 400 nM) 74 % WT.

For the variant chain 2 K6D, the percent of parent amounted to 7 % WT (ligand 200, 50, 20 nM) and 6 % WT (ligand 800, 600, 400 nM).

chain 2 K6V: the percent of parent reads like this: (ligand 200, 50, 20 nM) 50 % WT; (ligand 800, 600, 400 nM) 56 % WT.

Take chain 2 K6E: the percent of parent amounted to 2 % WT (ligand 200, 50, 20 nM) and 3 % WT (ligand 800, 600, 400 nM).

As for chain 2 K6F, the percent of parent (ligand 200, 50, 20 nM) is 96 % WT and the percent of parent (ligand 800, 600, 400 nM) amounted to 114 % WT.

In the case of chain 2 K6G, the percent of parent (ligand 200, 50, 20 nM) was found to be 6 % WT and the percent of parent (ligand 800, 600, 400 nM) worked out at 6 % WT.

As to chain 2 K6M, the percent of parent runs as follows: (ligand 200, 50, 20 nM) 7 % WT; (ligand 800, 600, 400 nM) 10 % WT.

In the case of chain 2 K6P, the percent of parent runs as follows: (ligand 200, 50, 20 nM) 7 % WT; (ligand 800, 600, 400 nM) 3 % WT.

In the case of chain 2 K6A, the percent of parent runs as follows: (ligand 200, 50, 20 nM) 6 % WT; (ligand 800, 600, 400 nM) 7 % WT.

Consider chain 2 K6R, for which the percent of parent (ligand 200, 50, 20 nM) was 8 % WT and the percent of parent (ligand 800, 600, 400 nM) was 11 % WT.

Consider chain 2 K6W, for which the percent of parent was 126 % WT (ligand 200, 50, 20 nM) and 106 % WT (ligand 800, 600, 400 nM).

chain 2 L7D: the percent of parent by setting is: (ligand 200, 50, 20 nM) 11 % WT; (ligand 800, 600, 400 nM) 12 % WT.

Turning to chain 2 L7A, the percent of parent by setting is: (ligand 200, 50, 20 nM) 98 % WT; (ligand 800, 600, 400 nM) 88 % WT.

For chain 2 L7E, the percent of parent was 3 % WT (ligand 200, 50, 20 nM) and 7 % WT (ligand 800, 600, 400 nM).

On to chain 2 L7N, for which the percent of parent (ligand 200, 50, 20 nM) was found to be 46 % WT and the percent of parent (ligand 800, 600, 400 nM) amounted to 75 % WT.

chain 2 L7F: the percent of parent by setting is: (ligand 200, 50, 20 nM) 102 % WT; (ligand 800, 600, 400 nM) 89 % WT.

Regarding chain 2 L7Y, the percent of parent amounted to 69 % WT (ligand 200, 50, 20 nM) and 87 % WT (ligand 800, 600, 400 nM).

Consider chain 2 L7Q, for which the percent of parent was found to be 11 % WT (ligand 200, 50, 20 nM) and 28 % WT (ligand 800, 600, 400 nM).

As for chain 2 L7R, the percent of parent runs as follows: (ligand 200, 50, 20 nM) 32 % WT; (ligand 800, 600, 400 nM) 59 % WT.

As for chain 2 L7T, the percent of parent (ligand 200, 50, 20 nM) came out at 38 % WT and the percent of parent (ligand 800, 600, 400 nM) was 73 % WT.

In the case of chain 2 L7H, the percent of parent reads like this: (ligand 200, 50, 20 nM) 66 % WT; (ligand 800, 600, 400 nM) 103 % WT.

With chain 2 L7I, the percent of parent (ligand 200, 50, 20 nM) amounted to 83 % WT and the percent of parent (ligand 800, 600, 400 nM) is 95 % WT.

Turning to chain 2 L7S, the percent of parent (ligand 200, 50, 20 nM) came to 31 % WT and the percent of parent (ligand 800, 600, 400 nM) worked out at 58 % WT.

On to chain 2 L7W, for which the percent of parent (ligand 200, 50, 20 nM) came out at 38 % WT and the percent of parent (ligand 800, 600, 400 nM) is 112 % WT.

For chain 2 L7V, the percent of parent reads like this: (ligand 200, 50, 20 nM) 153 % WT; (ligand 800, 600, 400 nM) 142 % WT.

Regarding chain 2 L7K, the percent of parent (ligand 200, 50, 20 nM) was 22 % WT and the percent of parent (ligand 800, 600, 400 nM) came out at 53 % WT.

chain 2 L7G: the percent of parent (ligand 200, 50, 20 nM) stood at 54 % WT and the percent of parent (ligand 800, 600, 400 nM) is 86 % WT.

Regarding chain 2 L7P, the percent of parent by setting is: (ligand 200, 50, 20 nM) 13 % WT; (ligand 800, 600, 400 nM) 11 % WT.

For the variant chain 2 L7M, the percent of parent by setting is: (ligand 200, 50, 20 nM) 39 % WT; (ligand 800, 600, 400 nM) 52 % WT.

For the variant chain 2 D12M, where the note is “ligand 800, 600, 400 nM”, the percent of parent was 93 % WT.

Turning to chain 2 D12Q, the percent of parent (ligand 800, 600, 400 nM) stood at 105 % WT.

For chain 2 D12P, the percent of parent (ligand 800, 600, 400 nM) was found to be 145 % WT.

In the case of chain 2 D12L, the percent of parent (ligand 800, 600, 400 nM) came out at 110 % WT.

Regarding chain 2 D12H, the percent of parent (ligand 800, 600, 400 nM) worked out at 179 % WT.

As to chain 2 D12R, the percent of parent (ligand 800, 600, 400 nM) was determined as 164 % WT.

Regarding chain 2 D12K, the percent of parent (ligand 800, 600, 400 nM) was found to be 191 % WT.

With chain 2 D12Y, the percent of parent (ligand 800, 600, 400 nM) is 180 % WT.

As for chain 2 D12A, the percent of parent (ligand 800, 600, 400 nM) worked out at 131 % WT.

Take chain 2 D12W: the percent of parent (ligand 800, 600, 400 nM) came out at 177 % WT.

As to chain 2 D12E, where the note is “ligand 800, 600, 400 nM”, the percent of parent stood at 173 % WT.

On to chain 2 D12V, for which the percent of parent (ligand 800, 600, 400 nM) turned out to be 159 % WT.

On to chain 2 D12N, for which, for the setting “ligand 800, 600, 400 nM”, the percent of parent was 128 % WT.

chain 2 D12S: the percent of parent (ligand 800, 600, 400 nM) turned out to be 128 % WT.

In the case of chain 2 D12T, the percent of parent (ligand 800, 600, 400 nM) turned out to be 133 % WT.

For chain 2 D12I, the percent of parent (ligand 800, 600, 400 nM) is 129 % WT.

On to chain 2 D12F, for which the percent of parent (ligand 800, 600, 400 nM) is 138 % WT.

As to chain 2 D12G, for the setting “ligand 800, 600, 400 nM”, the percent of parent was found to be 158 % WT.
